The nature of this data set: label from the status in PepcDB records.
Regarding “MKSPFYRCQNTTSVEKGNSAVMGGVLFSTGLLGNLLALGLLARSGLGWCSRRPLRPLPSVFYMLVCGLTVTDLLGKCLLSPVVLAAYAQNRSLRVLAPALDNSLCQAFAFFMSFFGLSSTLQLLAMALECWLSLGHPFFYRRHITLRLGALVAPVVSAFSLAFCALPFMGFGKFVQYCPGTWCFIQMVHEEGSLSVLGYSVLYSSLMALLVLATVLCNLGAMRNLYAMHRRLQRHPRSCTRDCAEPRADGREASPQPLEELDHLLLLALMTVLFTMCSLPVIYRAYYGAFKDVKEKNRTSEEAEDLRALRFLSVISIVDPWIFIIFRSPVFRIFFHKIFIRPLRYRSRCSNSTNMESSL”, the protein production entry was “failed”.
For “MKSQFLLSVKEHMLTRYYANKTIESYLFWIKRFIVFHQFAHPSKLSEDDVIRFLSHLAIDEKVAVKTQALALNAISFLYRDFFKTPLSLDMRFQKSLTEKKLPVVLTRDEVRRFV”, the protein production entry is reported as “failed”.
The entry for “MKTAELIFVPLPETGHLLSTIEFGKRLLNLDRRISMITILSMNLPYAPHADASLASLTASEPGIRIISLPEIHDPPPIKLLDTSSETYILDFIHKNIPCLRKTIQDLVSSSSSSGGGSSHVAGLILDFFCVGLIDIGREVNLPSYIFMTSNFGFLGVLQYLPERQRLTPSEFDESSGEEELHIPAFVNRVPAKVLPPGVFDKLSYGSLVKIGERLHEAKGILVNSFTQVEPYAAEHFSQGRDYPHVYPVGPVLNLTGRTNPGLASAQYKEMMKWLDEQPDSSVLFLCFGSMGVFPAPQITEIAHALELIGCRFIWAIRTNMAGDGDPQEPLPEGFVDRTMGRGIVCSWAPQVDILAHKATGGFVSHCGWNSVQESLWYGVPIATWPMYAEQQLNAFEMVKELGLAVEIRLDYVADGDRVTLEIVSADEIATAVRSLMDSDNPVRKKVIEKSSVARKAVGDGGSSTVATCNFIKDILGDHF” is “failed”; for “MKTDIILAGVGGQGILSIAAAIGSAALTNNLYLKQAETHGMSQRGGDVQSFLRLSDAPIYSDLIPIGGADLILSVEPMEALRYLPYLKPDGYVVTNTVPFINIPNYPETTSVISKIESLPHHVLIDADSIARDEVGNVRASNFVMLGAASPFIEIPFDYLAGGIEAIFSRKGQEVVDMNLKALNAGREFALRYAAGK” it is “not failed”; for “MKTFNESNGTNANVLMVGLTLVQAAAAKGAVCLDGSVPGYHLCRGYGSGANNWIIQLQGGAWCDSIQNCQSRKGSGYGSSTLMEKELAFLGLLSNKAAENPDFYNWNKVKVRYCDGASFDGDSENKAAQLQYRGKRIFLAVMEDLMEKGMRQAKQALLSGCSSGGLSAILRCDDFNNLFPPTTTVKCMSDAGFFLDAVDVSGGHSLRRMYSGVVNTQGLQNTLPPTCTSHIKPFLCFFPQYIINQVKTPLFILNSGFDSWQIGNSLAPPSADKSGSWHNCSFSFRCTASQMHFLEGFKMSMLDALKTFSKFSKNGVLITSGWAHCQAERQDTWFPGYSGAGKAKGIAVAVGDWYFERTKQNSS” it is “failed”.
For the sequence “MKTIAVLLTALLLATGCGNKESTGETASDEPEIVMMDESTSVGELPSILKEGLSNKEQDELKKQIMPILDDGLTPEQRFLNLRKDAEAGNAEAQNSLGSMYFSGEAISRDAQGKVKDKDPETAAGWFFRAAEQGHAGAQFNLGLLYFSGEGVTRDTAKAVELFTKSAEQGNIDAQNNLGVIYLMGEGVKQNTDKAIEWFEKAAEQGNEEAIKNLEAVRASQQDSKEAADKQK”, the protein production entry was “failed”.
“MKTIRSIGRFAVLAAMAALFAGCAGQQVKSEQRFFWPPLPERPRIEWLNAYSSQNDFPKSATEKFLTTIIGEEEGISLSKPITVRSDGRGKVYVGDPGAPGVYVFDFVNNIMRPFGKAEAEARIEQPVGIAIDENGRIYVSDTKKAAIMVFHQDETPAALINLKGMVEKIGDIAYDRIGKHLLALDVRGHKVLVLSLRGELLSSFGNRGTKPGEFNFPSALTVNNKGEIIVADAMNARIQIFSSDGKFLRMFGQRGDSPGTLQLIKGVAVDSDDNIYVTDGKGHKFEIFSTTGDYLLTVGGAFSALTTGKTAPGGFVIPQGIDIDKDNMIYVVDQLNRRFQVFRYISDSYLKANPIPGYTPSP”: the protein production entry is on record as “failed”.
Turning to “MKTKAKISSRWLRFRALLIDIFLIYIPILYLFYFLLGSKEAFLNNHFITTLCTFLFGLIQAIFLTKKAQSPGLKAYDLYLIDIKTGKKLSFLRILLRYVIFIISFGLLFGLFVSFVRKDRLNLHDILTQSCIATKSIKKG”, the protein production entry is recorded as “failed”.
“MKTKTLNTNRFIKLSLLSAIAVILMYIDFPVIPIFPWLKIDLSDVPALMGAFAFGPLAGVIIELMKNLLILIVKGTGTGFVGELANFLVGVALVWPAALVYKKNKTKKTAILGMVLGVLCIEVVGILANVYLLLPAYGMAMSKAELMQYVTVGLIPFNGIKSILVCGITYALYKKVSVSIFKVEPMLDKPKQMKENLG”: the protein production entry is recorded as “failed”.
Take “MKTLLIAWHSRTGAARQMAQALERGALAAALALEQPGQLRVRRQAASRTDAAALLAADGYLFCAPENLGSLSGAMKECFDRCYYGVLDRIQGRPYGVAISAGTDGEGAARQVERICTGWRLRAAAPPLIARSGAQTPEQIAAPKQVPADVLARCEELGGLLAATLLMGSLEHHHHHH”: the protein production entry is on record as “failed”.
The entry for “MKTLLSRSTAVPAKLLAATAITATLSAPAFSADANVESLVKAAQKEGSIYSVGMPDSWANWKDTWADLQSNYGLKHQDTDMSSAQEIAKFEAEKKNATADIGDVGFAFARVAVKKGVTQPYKPTTWNDIPDWAKDKDGHWALAYTGTISFISNNNLVKDAPKTWGDLLKGDYKVTVGDVGVAAQANNAVLAAAFANGGDESNLKPAIKFFAELAKQGRLSFTDPNIANLEKGEVEVAIMWDFNALNYRDKIDRERFTVTIPQDGSVISGYTTIINKYAKNPNAAKLAREYIFSDQGQINLAEGYARPIRTSITLPKSVQDKLIANDQYSNVHPVTDFSAWEKSARKLPRQWQESVLIHQQ” is “failed”; for “MKTLVDHLSQYANYHRDPRNIATHFVGIPMIVLAVTILLSRPGWEIAGMWLSPALLAAAASVWFYLRLDLRFGLVMGLLLGLCLWVGEALAVQSTTLWLGAGLGAFVVGWIIQFIGHYYEGRKPAFVDDVSGLIIGPLFVVAEAAFMLGLCPTLKRAVEANAGPIAMRQKKASV” it is “failed”.
Regarding “MKTLVHLSDLHFGKTESHLVDAIAAEVRAVDSDLLVVSGDLTQRARKDEFLQARAFLDSLPGPRIVVPGNHDVPLWNVFARAMTPLSRYRRYIEADTDPFYADSEVAVVGINTARSLTIKNGRINVRQLKAATEKFAYMSDDITRIVVTHHPFEGLDLESDDGIVARADLAMDAFSRSGVDIILSGHQHLHRAGSSARRYLIDGYAALLVQAGTAVSSRVRQAANSFNIIRIEHPRISIECRAWQSLQSGFETSASYSFRQGSGGWEPALEHHHHHH”, the protein production entry was “failed”.
As for “MKTLVIVAHPNLETSVVHKRWVEELKKYPEKYTVHELSDVYPDGNIDAEKEQKLVESHGNLVLQFPIYWFNCPPLLKKWLDDVLAYGWAYGSNGGDRLNNRKVALGVSAGIKEEDYRENGRYRYTLEQILVPFETTFRYCRADYRSFFAFYGKEKEPGGNEEEENEPGAGELEKSARDYLHFIDHM”, the protein production result was “failed”.
Take “MKTREEKMNKTILLLACLLGLVACSSQYIMSTKDGKMITSDSKPKLDKTTGMYLYYDEDGREVMIKQEDVTQIIERLEHHHHHH”: the protein production entry is reported as “not failed”.
Turning to “MKTRLMEAWKAHRSVMVQMPTGTGKTHLLASVVSEFVSSAGSGVWLIAHRRELVAQMEETLAKYGIRREDTPVRVMSVQWLSRHWNEAGDAPGLIVIDEAHHALAASYTEMWKRYPAAKKLGVTATPCRLNRRGFTELFEVLVTSWSIAEFIEKGVLSVFDYVSIRPGSEERRLIDGLEKRGADGDYQVKEMDAVLNRRPGIERLYRSVRQFASGKKGMVYAISIEHARRIAEYYSRRGVNAVAVDSKTPAMERKRMVEEFRHGKIEVLVNVDVFSEGFDCPDVEFVQLARPTLSLAKYLQQVGRGLRRSEGKEACMLIDNVGLYRIFGLPTQRWNWDAMFRGRMAGKGSLPGRMNCDASVTAFPVVERPAEAGGDLVVVMEHGRLLSSIREQALPDEKEQSPSCRLRAFVDKETGLWGLEKGDEMLPDASFKEVLSIKGRFAVGRLRNGCVRVLDDTGALVAEPGHCREVRFLKDDLLQVRHAGNSVSYVDLRNGRCYSVRPRVLRYGSIELLQANRTYYSRTRQVYANTCGLPSSSIVWMGFYVKMYDGRVPSRCRRMEDGGFCCEPQVCLLEGDEERAYYLSGRLPDQSIVVMDEEGRYYHVEKGHGKRYVACLEHHHHHH”, the protein production entry was “failed”.
“MKTRSSDAEGDSRGKMIAPVGEGNGGRKRKLVQSNEQKNDIQREEDGRAKRRIVQSSDQKNGKILRGIRGCVSPRCSAQTYQSRFSWYEQDIWTYISRFLDGKSLVKLGATNKWFYKIAMEDTVWRFACLRDLQVPVPFPVSSTWIKIYASAFDGSHSYLFRQKEKHIGAFVLDSRTSLLTESLSGRLKFPREGTIERMLQSSGSCLINDIKSGIWIADLQLVRCPVCDLSTCDGTMQTLDARHIELFLSEGYKDGSWDYNLIGSHKLQKNASAACGAIFDLKHLKESSYSGILNLKSWTGESNDSQPKAVIAPHAVAVHTRLQENEGILVKYHTMKAGTDGDIVSIRISQQLL”: the protein production entry is on record as “failed”.
For “MKTSRSSIGKSIFLAATMLATGSAAWAGQAPGALSSPDIPISHHDRVYAAEQFSNTVSVTDPVDNKLLGVIRLGDPQPGNFSPLYKGQVLVHGMGFSPDHKMLAVVSIGSNSVTFIDTATNAVKHTTYIGRSPHEAFFTPDGKEVWVTVRGENYISVIDPQSFEERRRITTPSGPGMQMFSPDGKYAYICSSFNPETDVVAVAEHKIIAKVKQESPFCPNIAVTPDGNQVWFTLKDTGRTQVFNARPPFNPIRTIDTGPITNHVNFAHTARGTFAYVTIGGLNQVKVFRTDDFSQVATIPVGNLPHGVWPSGDGTRIYVGLENADALAAIDTATNSVVANVPIGQAPQAIAYVPGAAPNPDDRQNLQALGVAGQFAHLALASRDGSKDGKAPTSVSLFDQGLIQILQASVTGLEPRQKYVLALAEHGDGSGTLQPLAAFMTNPAGSAIVNAAGPIRQIVDQSAAAARRYLVIASGDVAMPGEAVQIEAQ”, the protein production entry is reported as “failed”.
With “MKTVLAFGDSLTWGADPATGLRHPVEHRWPDVLEAELAGKAKVHPEGLGGRTTCYDDHAGPACRNGARALEVALSCHMPLDLVIIMLGTNDIKPVHGGRAEAAVSGMRRLAQIVETFIYKPREAVPKLLIVAPPPCVAGPGGEPAGGRDIEQSMRLAPLYRKLAAELGHHFFDAGSVASASPVDGVHLDASATAAIGRALAAPVRDILG”, the protein production entry was “not failed”.
For “MKVAVLDFGKTNSKLFVFGQDGGILDERRTQPKWTHQDGFSVLDEAALHDWALGAVTEAVENHGVEGVMVSGHGCTFALVDDAALTHPILDYEQEPPAEIAARIDHRIPDFAETFSPRLPLGFNYGRHMLWVQEVDPDAFAAAKSILGYPQYWSWRLGGRPVSEVSYLGCHSHLWAPRSQDFSSLVDAEGWRGQMPAFARAGAVIGERRLGSSSRPIAIHNGVHDSNAALHAYRLEHHHHHH”, the protein production result is on record as “not failed”.
Regarding “MKVDVDEKTYIITMANDITKLYEENKRNLHYSITDPLTGAYNRKYLNDRFDIFIGDYIVLIDLDNFKMINDYEGHNVGDKILCDFVSLLNKELINSTSIIRLGGDEFIVIFSSDVDKNYVYSQLEALRENFLKVFSKYKYLSFSYGVDTVKRNLKLTIVELDKKMYKNKEKNKKKFDKNLEHHHHHH”, the protein production entry is “not failed”.

For the origin of these results see a protein production outcome set (Wang et al. 2014).
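Note: failed if final PepcDB status was selected cloned or expressed and not failed if soluble or beyond.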
